The record followed here is the supplement of paper PMC12636428.

The data set concerns Saccharomyces cerevisiae. As to the kind of experiment: transcriptional activation domain activity (GFP:mCherry ratio, weighted mean of sorted bins, harmonized to initial dataset scale) (arbitrary fluorescence ratio units); higher = stronger transcriptional activation. To be noted: beta-estradiol 1 µM; induction time 4 h. The essentials: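 Activation activity, the read-weighted mean of bin median fluorescence averaged across barcodes, was linearly mapped onto the scale of the initial dataset. It was measured for barcoded protein tiles fused to an estradiol-inducible synthetic transcription factor at URA3 in GFP-reporter yeast diploids. Cultures diluted 1:5 into SC with 1 uM beta-estradiol were held 4 hours at 30 °C, sorted into 8 bins by GFP:mCherry ratio, and barcode-sequenced, and tiles under 50 reads were discarded.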

Turning to “RIVGESASTHAVCVSLPRDVYQASDGEEDLMGSVPQVLPALVCSCTRASSIVH”, the “transcriptional activation domain activity” value came out at 68500.
To “MVQYIMSSKLLLSCINLLRSSILCTMLYLSFFGNFLLCHMIFGLWFYFMMHHE” belongs 53300.
To “RNIGTGPSAPGGVDHKRSRACESCRGLKVRCEPANEANLQGSCKRCAKAGRHC” belongs 40400.
The figure for “YKTTMARLIYLMDDKFKLFDHLRALKKYLLLGQGDFIALLMESLASNLDRPAN” is 55100.
As to “MSNTYRFVMEEPAEAGKGQQKKRARLVTACDNCRNKKIKCLRTPVSGTCESCK”, the “transcriptional activation domain activity” value was 27900.
The figure for “RRKRRRRGGEDEQQAEVEDNDRHRSSRHHRRRRRETSEEKSPRRRATDRRRHP” is 34600.
To “VKWAKETRGEQRKRLHIVPVGIVYTNKSQYQSRVSSRVHICVHVEAFVQERTS” belongs 52100; to “WIKWTFLFARYFPLLAGLCGRVIDSIVLYRNPIPIPLNALRIWYICQVLILHL”, 78200; to “MSWLVSISFMFYTFILPFYYYYKHSTTLFIYTYIYISLYIPIWFVYNHPYHLL”, 43000.
To “GTGGLSELRDAFDDSKASYGYARVTYSNDKESQREKFILVVWIGSGCKVMRKG” belongs 36600; to “LYSVCSILLLVVRLFKQLPRQYCSWRVVYTQKLWISITICFTLMRFSFSRDHT”, 51100.
Consider “MTVTPVNGYGWSRANKIGWTVFYISLWGYSNCSYFFPLPLYFSYVFFFFPFYP”, for which the “transcriptional activation domain activity” value worked out at 42200.
The figure for “GVRKDRQQMYFILATNSMIDLGFVVASFVPLVLLWIGGMGYLRVVWRVTLGLG” is 51400; for “PILIPGGLGVVLLHLPASFTKIECNESGFHQFIKRRCRLLLGVEPGMKVVVLT” it is 60900.
For the sequence “MSNGFFLGLWVLIKRPFFFFFFHLFVMHGVLGGCWDLLVGFVCLHRGFWFLFW”, the “transcriptional activation domain activity” value was 70700.
As to “GWFYFNVLRHAELMVFTIFSPEHVTIWALRQHSVARLIRALCPEKLSMSHGFL”, the “transcriptional activation domain activity” value came to 32400.
The figure for “ADGEEEEEEGEAAGGSERPGIWGQALMELGSTVCTPKPKCVECPVTATCRAYQ” is 55800; for “SFTNFLMALFGVLLGAIFLSIYTYYTFWRGCRSTILPCISSTWYKAFTILFYL” it is 47600.
To “MGLIIYLGHMGCLMPRDDPTLFTIIHTNGIHHVCIVFCSCAISVHPWQQLLCH” belongs 29000; to “FPCFFISLFPCLLSLSISLFPCLVISLSFFLISLFPFLFLFFPFLSFSLFPYF”, 68500; to “CLAGKDLFGTLFGLRVIIQVVGILMSIPHTLVVTTRWIRRMLLVYFLDQLYYT”, 80600.
To “MYVGGVFSVSLFESVCYFVIFFSSLDLLLLLLLLFFSFLFFSFLFFFFSLVPS” belongs 44800; to “SEPTAGNEGKEETSAPKKEESKPAESEKKAEEPKQEQPKKEEKKAEGKPASGS”, 31400.
Consider “IFTSFLLFHDPTLFMFISYDIAYVWWVHLMERLIEPLPLMCCFLIMPMICFVI”, for which the “transcriptional activation domain activity” value stood at 54400.
Turning to “MLCIRYLIYFLLLGESLVGSFLPPFTIYISLFFSSSIPCSTWVSFPLLHHTYL”, the “transcriptional activation domain activity” value came out at 35900.
Turning to “KTVEEIWRISQGAVEGEEKGREREKAGLCVRACGASWHSQVLCAALVEVVGLS”, the “transcriptional activation domain activity” value is 41700.
The figure for “MLQHSWCFIFRLFDPLFFFFFFFFSTWNAIVGRWVFSLSFEPFFVRLLHLILY” is 37700; for “PASPPIDRMERLHIRRTSPSPQGNYDEIRIDRARRISSSPPRRYEEVRVRHVS” it is 26700.
The figure for “SRHGREASEERARRKRRERQRDNDGGNRSRRKHTSPSSDDADRLTRKRKSRHE” is 11000; for “TSKAQESKTKEGDKEEKAATKREKDDSKEEDDDDDNETEEKQAGDKRKKTNGS” it is 30800; for “SFLSPFCRWVGGSFFVIIWSLFFLSLLFSPPCQPGFISWSFWTAGFLVFFFLF” it is 46500.
The figure for “AGNATAGTGTGKGKGKGKGKGKGKGKKAGKNAGKNAGKNAGKNSTAAAGGQQK” is 20100.
For “NDGNESNEDYLGNEKFYLNEILPDEESKLRWKRVFENSENDHDNEKNFLTDWE”, the “transcriptional activation domain activity” value is 39900.
On to “AAAAALRTEETADSAGQLAEAGCRSVDTADTAEGCLEEMAVVVVAVASSVGAM”, for which the “transcriptional activation domain activity” value was determined as 55600.
As to “MEHFSLFLFRFFFLFFVFLFLRRRGGGFGTGFGFWFLVFGFWFLVFGFWFWLW”, the “transcriptional activation domain activity” value was determined as 64000.
The figure for “AQRHLLKCIVFRTEKSLINFVPELTEAKARDIRMLHFYPPALQRAALILLVKT” is 47500.
To “KKAAAALNGEAADGEATAEGEGAPKREPRAKKPRTPRPRRAPGEEPAGEPSKN” belongs 44900; to “ESPSPDQEEEVEDRENDKPKANTAKKAKPAEGKKTGGRKKAALGGAAKKKAEK”, 43300; to “ELLVLLDQHWNYSRLRYPICFLSRTASEMLTFVRSMMEWLGGTVSKEDVGEDG”, 25800.
With “MFVGGWVMCLLFSKYSIYHLLAICALLFLLEYAFFFLLGIIHLLLLPTFFPFF”, the “transcriptional activation domain activity” value stood at 37800.
To “MPEVESARPTTSSKCIVLFYLFFLPCLSPFLYFLMLTMASVPSPLGFLLLLVC” belongs 66100; to “DGGDGDDGSGGEVERAGKSGRAKREGKRGAEEEEEERGDGRAARKTAEKRKKR”, less than 6570; to “LALFGMKMVEAIMTMIHMDFRYCDFLGILPLLIFLIPCHYFYTLLKIKALLTY”, 60600.
To “RSMLFPKPSGFKFYRDSFRYISVMACVAMLGFIATFINFIRLGIAWHLIIVRA” belongs 54400.
To “VMHALWNRWIFFNRSLFLGNQHEGVRAFITEYWRMIRLAAGWDVLRWWLLILC” belongs 51800; to “VNKSGSTYGEELSPKLDSSLVNDTTSLLLPQQPVFVSENVGSEFSSLNEFLSM”, 108000; to “LLYLLLLLRKVSVMLCFIDLLIFGIFLCFLSLLLFLSLFFLFLFLLVFSEEFF”, 37600.
Regarding “SALRYYFKVELYNLPARQWFERCFFTPLEVFNTAWLAYILLAQTTGSMVNCAC”, the “transcriptional activation domain activity” value is 38200.
The figure for “YYGRTIVRTNFWLKTYINFEIDALLLNGRATVRRFINHLYQDQRAKLFKECKH” is 54700; for “VKHTYLMVTILLLFIFITMCCIMDNVRCIVALNNPGLDLGPPNSVIGILINAC” it is 18100.
The figure for “FLSLLVLVCWVPCFVIMEVYLKSLTFNSVPYPPIHCFTPEGSHILYLCWGLIA” is 32200.
For the sequence “AAEEKEGYEDEAEEGEDEEEDEEDPEVRRKEELRARMAKMSAGMGGMGGMGMM”, the “transcriptional activation domain activity” value worked out at 10100.
To “MLLCLSFLCCYYDISNVSRCYCLFCCIILLFLSCSLLFWLAFSQFLRFFLISF” belongs 62000.
The figure for “RPEEAPSTDEEESRGECWSEGKLCLENYMRLNDLEPENSDPEQLAHVKELLEK” is 47500; for “HESDDFWRENASKLNEKDYEQLKLVPLHMFAPDWPLNCLLLRILVRLLSTEDP” it is 30700.
